The source of these data is publication PMC3462610 (Biochemical Journal, 2011).

Assay [1] has as its system GST–MKK7β1. Description: GST pull-down of WDR62 fragments with GST–MKK7β1. To be noted: HEK-293T. The assay is classed as binding, human.
For assay [2], the system named is HA–JNK2. Kind of assay: Co-immunoprecipitation of HA–JNK2 with Myc-tagged WDR62 constructs, HEK-293T. As to conditions: quantified, means±S.D., three independent experiments. The assay is classed as binding, human.
The subject of assay [3] is HA–JNK2. Kind of assay: GST pull-down with WDR62 1018-C–GST constructs. The class given is binding, human. As to conditions: HEK-293T; for association with HA–JNK2: anti-HA/anti-pJNK.
The test system of assay [4] is HA–JNK1. Kind of assay: GST pull-down with WDR62 1018-C–GST constructs. The assay is classed as binding, human. To be noted: HEK-293T; for association with HA–JNK1: anti-HA/anti-pJNK.
Assay [5] has as its system His–MKK7β1. Kind of assay: In vitro protein-binding assay. Set-up: species or system human. As to conditions: purified proteins, 2 h at 37°C, amylose resin.
In assay [6] the test system is His–JNK2. Kind of assay: In vitro protein-binding assay. As to conditions: purified proteins, 2 h at 37°C, amylose resin. Also noted: species or system human.
Assay [7] has as its system WDR62. Kind of assay: GST pull-down of MKK4 with WDR62 fragments. The class given is binding, human. To be noted: HEK-293T, compared with MKK7–WDR62.

B1: Myc-1232-C: Myc-tagged WDR62 aa 1232–1523 (protein)
chain: ISLGDSEGPIVATLAQPLRRPSSVGELASLGQELQAITTATTPSLDSEGQEPALRSWGNHEARANLRLTLSSACDGLLQPPVDTQPGVTVPAVSFPAPSPVEESALRLHGSAFRPSLPAPESPGLPAHPSNPQLPEARPGIPGGTASLLEPTSGALGLLQGSPARWSEPWVPVEALPPSPLELSRVGNILHRLQTTFQEALDLYRVLVSSGQVDTGQQQARTELVSTFLWIHSQLEAECLVGTSVAPAQALPSPGPPSPPTLYPLASPDLQALLEHYSELLVQAVRRKARGH
For the molecule B1, the “association with MKK7β1, in words” value in assay [1] is on record as “but not Myc-1232-C”.

B2: Myc-1018-1284: Myc-tagged WDR62 aa 1018–1284 (protein)
chain: RFATSLPHFPGCAGPTEDELSLPEGPSVPSSSLPQTPEQEKFLRHHFETLTESPCRELFPAALGDVEASEAEDHFFNPRLSISTQFLSSLQKASRFTHTFPPRATQCLVKSPEVKLMDRGGSQPRAGTGYASPDRTHVLAAGKAEETLEAWRPPPPCLTSLASCVPASSVLPTDRNLPTPTSAPTPGLAQGVHAPSTCSYMEATASSRARISRSISLGDSEGPIVATLAQPLRRPSSVGELASLGQELQAITTATTPSLDSEGQEPA
On to B2, for which the “association with MKK7β1, in words” value in assay [1] was “efficiently associated”.

B3: Myc-N-1284: Myc-tagged WDR62 aa 1–1284 (protein)
chain: MAAVGSGGYARNDAGEKLPSVMAGVPARRGQSSPPPAPPICLRRRTRLSTASEETVQNRVSLEKVLGITAQNSSGLTCDPGTGHVAYLAGCVVVILDPKENKQQHIFNTARKSLSALAFSPDGKYIVTGENGHRPAVRIWDVEEKNQVAEMLGHKYGVACVAFSPNMKHIVSMGYQHDMVLNVWDWKKDIVVASNKVSCRVIALSFSEDSSYFVTVGNRHVRFWFLEVSTETKVTSTVPLVGRSGILGELHNNIFCGVACGRGRMAGSTFCVSYSGLLCQFNEKRVLEKWINLKVSLSSCLCVSQELIFCGCTDGIVRIFQAHSLHYLANLPKPHYLGVDVAQGLEPSFLFHRKAEAVYPDTVALTFDPIHQWLSCVYKDHSIYIWDVKDINRVGKVWSELFHSSYVWNVEVYPEFEDQRACLPSGSFLTCSSDNTIRFWNLDSSPDSHWQKNIFSNTLLKVVYVENDIQHLQDMSHFPDRGSENGTPMDVKAGVRVMQVSPDGQHLASGDRSGNLRIHELHFMDELVKVEAHDAEVLCLEYSKPETGLTLLASASRDRLIHVLNVEKNYNLEQTLDDHSSSITAIKFAGNRDIQMISCGADKSIYFRSAQQGSDGLHFVRTHHVAEKTTLYDMDIDITQKYVAVACQDRNVRVYNTVNGKQKKCYKGSQGDEGSLLKVHVDPSGTFLATSCSDKSISVIDFYSGECIAKMFGHSEIITSMKFTYDCHHLITVSGDSCVFIWHLGPEITNCMKQHLLEIDHRQQQQHTNDKKRSGHPRQDTYVSTPSEIHSLSPGEQTEDDLEEECEPEEMLKTPSKDSLDPDPRCLLTNGKLPLWAKRLLGDDDVADGLAFHAKRSYQPHGRWAERAGQEPLKTILDAQDLDCYFTPMKPESLENSILDSLEPQSLASLLSESESPQEAGRGHPSFLPQQKESSEASELILYSLEAEVTVTGTDSQYCRKEVEAGPGDQQGDSYLRVSSDSPKDQSPPEDSGESEADLECSFAAIHSPAPPPDPAPRFATSLPHFPGCAGPTEDELSLPEGPSVPSSSLPQTPEQEKFLRHHFETLTESPCRELFPAALGDVEASEAEDHFFNPRLSISTQFLSSLQKASRFTHTFPPRATQCLVKSPEVKLMDRGGSQPRAGTGYASPDRTHVLAAGKAEETLEAWRPPPPCLTSLASCVPASSVLPTDRNLPTPTSAPTPGLAQGVHAPSTCSYMEATASSRARISRSISLGDSEGPIVATLAQPLRRPSSVGELASLGQELQAITTATTPSLDSEGQEPA
Consider B3, for which the “reduction of precipitated JNK2 as compared with CS2 and CS5 full-length proteins” value in assay [2] is given as 7 -fold.

B4: Myc-1212-C: Myc-tagged WDR62 aa 1212–1523 (protein)
chain: PSTCSYMEATASSRARISRSISLGDSEGPIVATLAQPLRRPSSVGELASLGQELQAITTATTPSLDSEGQEPALRSWGNHEARANLRLTLSSACDGLLQPPVDTQPGVTVPAVSFPAPSPVEESALRLHGSAFRPSLPAPESPGLPAHPSNPQLPEARPGIPGGTASLLEPTSGALGLLQGSPARWSEPWVPVEALPPSPLELSRVGNILHRLQTTFQEALDLYRVLVSSGQVDTGQQQARTELVSTFLWIHSQLEAECLVGTSVAPAQALPSPGPPSPPTLYPLASPDLQALLEHYSELLVQAVRRKARGH
As to B4, the “association with MKK7β1, in words” value in assay [1] is “efficiently associated”.

B5: 1018-C–GST: wild-type WDR62-1018-C fused to GST (protein)
chain: RFATSLPHFPGCAGPTEDELSLPEGPSVPSSSLPQTPEQEKFLRHHFETLTESPCRELFPAALGDVEASEAEDHFFNPRLSISTQFLSSLQKASRFTHTFPPRATQCLVKSPEVKLMDRGGSQPRAGTGYASPDRTHVLAAGKAEETLEAWRPPPPCLTSLASCVPASSVLPTDRNLPTPTSAPTPGLAQGVHAPSTCSYMEATASSRARISRSISLGDSEGPIVATLAQPLRRPSSVGELASLGQELQAITTATTPSLDSEGQEPALRSWGNHEARANLRLTLSSACDGLLQPPVDTQPGVTVPAVSFPAPSPVEESALRLHGSAFRPSLPAPESPGLPAHPSNPQLPEARPGIPGGTASLLEPTSGALGLLQGSPARWSEPWVPVEALPPSPLELSRVGNILHRLQTTFQEALDLYRVLVSSGQVDTGQQQARTELVSTFLWIHSQLEAECLVGTSVAPAQALPSPGPPSPPTLYPLASPDLQALLEHYSELLVQAVRRKARGH
As to B5, in assay [3], the “association with HA–JNK2” value is on record as “efficiently precipitated”. The “association with HA–JNK1” value in assay [4] is on record as “efficiently precipitated”.

B6: MBP-1018-C: MBP fused to human WDR62 1018-C fragment (protein)
chain: RFATSLPHFPGCAGPTEDELSLPEGPSVPSSSLPQTPEQEKFLRHHFETLTESPCRELFPAALGDVEASEAEDHFFNPRLSISTQFLSSLQKASRFTHTFPPRATQCLVKSPEVKLMDRGGSQPRAGTGYASPDRTHVLAAGKAEETLEAWRPPPPCLTSLASCVPASSVLPTDRNLPTPTSAPTPGLAQGVHAPSTCSYMEATASSRARISRSISLGDSEGPIVATLAQPLRRPSSVGELASLGQELQAITTATTPSLDSEGQEPALRSWGNHEARANLRLTLSSACDGLLQPPVDTQPGVTVPAVSFPAPSPVEESALRLHGSAFRPSLPAPESPGLPAHPSNPQLPEARPGIPGGTASLLEPTSGALGLLQGSPARWSEPWVPVEALPPSPLELSRVGNILHRLQTTFQEALDLYRVLVSSGQVDTGQQQARTELVSTFLWIHSQLEAECLVGTSVAPAQALPSPGPPSPPTLYPLASPDLQALLEHYSELLVQAVRRKARGH
On to B6, for which the “precipitation of His–MKK7β1” value in assay [5] is on record as “efficiently precipitated”. Also, the “precipitation of His–JNK2” value in assay [6] was “efficiently precipitated His–JNK2”.

B7: MKK4: HA-tagged human MKK4 (protein)
chain: MAAPSPSGGGGSGGGSGSGTPGPVGSPAPGHPAVSSMQGKRKALKLNFANPPFKSTARFTLNPNPTGVQNPHIERLRTHSIESSGKLKISPEQHWDFTAEDLKDLGEIGRGAYGSVNKMVHKPSGQIMAVKRIRSTVDEKEQKQLLMDLDVVMRSSDCPYIVQFYGALFREGDCWICMELMSTSFDKFYKYVYSVLDDVIPEEILGKITLATVKALNHLKENLKIIHRDIKPSNILLDRSGNIKLCDFGISGQLVDSIAKTRDAGCRPYMAPERIDPSASRQGYDVRSDVWSLGITLYELATGRFPYPKWNSVFDQLTQVVKGDPPQLSNSEEREFSPSFINFVNLCLTKDESKRPKYKELLKHPFILMYEERAVEVACYVCKILDQMPATPSSPMYVD
Take B7: the “MKK4–WDR62 interaction” value in assay [7] was “weaker than the MKK7–WDR62 interaction”.

B8: 1018-CΔD–GST: WDR62-1018-C lacking the D domain fused to GST (protein)
chain: RFATSLPHFPGCAGPTEDELSLPEGPSVPSSSLPQTPEQEKFLRHHFETLTESPCRELFPAALGDVEASEAEDHFFNPRLSISTQFLSSLQKASRFTHTFPPRATQCLVKSPEVKLMDRGGSQPRAGTGYASPDRTHVLAAGKAEETLEAWRPPPPCLTSLASCVPASSVLPTDRNLPTPTSAPTPGLAQGVHAPSTCSYMEATASSRARISRSISLGDSEGPIVATLAQPLRRPSSVGELASLGQELQAITTATTPSLDSEGQEPALRSWGNHEASSACDGLLQPPVDTQPGVTVPAVSFPAPSPVEESALRLHGSAFRPSLPAPESPGLPAHPSNPQLPEARPGIPGGTASLLEPTSGALGLLQGSPARWSEPWVPVEALPPSPLELSRVGNILHRLQTTFQEALDLYRVLVSSGQVDTGQQQARTELVSTFLWIHSQLEAECLVGTSVAPAQALPSPGPPSPPTLYPLASPDLQALLEHYSELLVQAVRRKARGH
For B8, the “association with HA–JNK2” value in assay [3] is recorded as “relatively weak interaction”. Also, in assay [3] (anti-pJNK), the pJNK2 in precipitate result is “no pJNK1/2 was detected”. In addition, in assay [4], the “association with HA–JNK1” value is “relatively weak interaction”. In addition, the pJNK1 in precipitate result in assay [4] (anti-pJNK) is listed as “no pJNK1/2 was detected”.

B9: Myc-1018-CΔD (protein)
chain: RFATSLPHFPGCAGPTEDELSLPEGPSVPSSSLPQTPEQEKFLRHHFETLTESPCRELFPAALGDVEASEAEDHFFNPRLSISTQFLSSLQKASRFTHTFPPRATQCLVKSPEVKLMDRGGSQPRAGTGYASPDRTHVLAAGKAEETLEAWRPPPPCLTSLASCVPASSVLPTDRNLPTPTSAPTPGLAQGVHAPSTCSYMEATASSRARISRSISLGDSEGPIVATLAQPLRRPSSVGELASLGQELQAITTATTPSLDSEGQEPALRSWGNHEASSACDGLLQPPVDTQPGVTVPAVSFPAPSPVEESALRLHGSAFRPSLPAPESPGLPAHPSNPQLPEARPGIPGGTASLLEPTSGALGLLQGSPARWSEPWVPVEALPPSPLELSRVGNILHRLQTTFQEALDLYRVLVSSGQVDTGQQQARTELVSTFLWIHSQLEAECLVGTSVAPAQALPSPGPPSPPTLYPLASPDLQALLEHYSELLVQAVRRKARGH
As to B9, in assay [1], the “association with MKK7β1, in words” value is recorded as “efficiently precipitated with GST–MKK7β1”.
